This is an account of results in IntAct's records for PubMed 29997244.

The labels stand for the following.
B1: DnaJ homolog subfamily C member 5 (Homo sapiens), Q9H3Z4 (parent)
chain: MADQRQRSLSTSGESLYHVLGLDKNATSDDIKKSYRKLALKYHPDKNPDNPEAADKFKEINNAHAILTDATKRNIYDKYGSLGLYVAEQFGEENVNTYFVLSSWWAKALFVFCGLLTCCYCCCCLCCCFNCCCGKCKPKAPEGEETEFYVSPEDLEAQLQSDEREATDTPIVIQPASATETTQLTADSHPSYHTDGFN
partner: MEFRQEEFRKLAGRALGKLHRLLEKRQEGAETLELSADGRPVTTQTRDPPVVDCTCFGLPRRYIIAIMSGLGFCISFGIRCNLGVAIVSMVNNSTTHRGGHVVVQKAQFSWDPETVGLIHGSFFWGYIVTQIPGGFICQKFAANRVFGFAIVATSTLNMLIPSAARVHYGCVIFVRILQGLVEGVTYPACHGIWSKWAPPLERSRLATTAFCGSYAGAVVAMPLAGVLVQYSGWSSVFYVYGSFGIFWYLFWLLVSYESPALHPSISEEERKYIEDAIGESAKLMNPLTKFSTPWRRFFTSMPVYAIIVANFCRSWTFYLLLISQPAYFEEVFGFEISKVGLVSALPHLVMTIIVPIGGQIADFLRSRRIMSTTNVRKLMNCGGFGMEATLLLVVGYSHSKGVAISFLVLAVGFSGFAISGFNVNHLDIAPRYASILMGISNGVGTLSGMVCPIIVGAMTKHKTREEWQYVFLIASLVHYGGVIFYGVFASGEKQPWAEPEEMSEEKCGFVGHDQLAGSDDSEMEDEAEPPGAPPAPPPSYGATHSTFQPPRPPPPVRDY
B2: DnaJ homolog subfamily C member 5 (Homo sapiens), Q9H3Z4 (parent)
chain: B1 chain
partner: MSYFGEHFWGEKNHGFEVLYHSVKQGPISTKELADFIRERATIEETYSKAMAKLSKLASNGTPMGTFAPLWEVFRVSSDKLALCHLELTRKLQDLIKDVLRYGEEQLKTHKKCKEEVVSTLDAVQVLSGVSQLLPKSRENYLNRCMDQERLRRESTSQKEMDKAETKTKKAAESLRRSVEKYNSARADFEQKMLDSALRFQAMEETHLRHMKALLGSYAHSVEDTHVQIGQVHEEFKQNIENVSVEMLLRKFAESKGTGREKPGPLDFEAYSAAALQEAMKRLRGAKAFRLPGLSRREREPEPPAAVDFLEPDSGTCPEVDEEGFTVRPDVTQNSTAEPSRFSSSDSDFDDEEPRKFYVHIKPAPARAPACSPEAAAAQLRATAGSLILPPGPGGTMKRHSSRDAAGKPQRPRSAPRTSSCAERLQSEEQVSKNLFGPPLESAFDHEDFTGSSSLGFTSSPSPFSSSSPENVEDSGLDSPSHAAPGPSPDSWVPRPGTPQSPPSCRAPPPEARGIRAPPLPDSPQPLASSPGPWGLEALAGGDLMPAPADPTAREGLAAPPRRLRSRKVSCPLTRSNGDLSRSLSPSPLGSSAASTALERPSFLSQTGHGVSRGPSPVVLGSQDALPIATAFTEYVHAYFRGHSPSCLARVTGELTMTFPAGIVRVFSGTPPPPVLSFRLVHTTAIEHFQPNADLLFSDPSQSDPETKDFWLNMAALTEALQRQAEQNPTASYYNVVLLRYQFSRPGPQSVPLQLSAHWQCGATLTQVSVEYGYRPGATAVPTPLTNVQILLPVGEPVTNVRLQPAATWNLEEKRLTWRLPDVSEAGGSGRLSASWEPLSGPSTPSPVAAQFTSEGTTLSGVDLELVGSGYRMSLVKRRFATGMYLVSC
B3: DnaJ homolog subfamily C member 5 (Homo sapiens), Q9H3Z4 (parent)
chain: B1 chain
partner: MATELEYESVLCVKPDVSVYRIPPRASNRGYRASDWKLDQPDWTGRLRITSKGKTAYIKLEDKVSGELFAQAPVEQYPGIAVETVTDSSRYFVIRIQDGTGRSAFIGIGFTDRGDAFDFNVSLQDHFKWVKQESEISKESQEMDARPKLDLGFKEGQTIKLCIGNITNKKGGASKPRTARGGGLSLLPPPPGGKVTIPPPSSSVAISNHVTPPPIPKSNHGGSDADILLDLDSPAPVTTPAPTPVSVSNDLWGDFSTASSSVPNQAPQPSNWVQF
B4: DnaJ homolog subfamily C member 5 (Homo sapiens), Q9H3Z4 (parent)
chain: B1 chain

One assay covers variants of B1. The note with it: with vglu1_human SLC17A7, Q9P2U7.
Take L115R: the “effect of a mutation on the interaction” value is on record as “with no effect”.

Another assay covers variants of B2. The following applies: with fcho1_human FCHO1, O14526.
Turning to L115R, the “effect of a mutation on the interaction” value is “decreasing interaction strength”.

Another assay covers variants of B3. The following applies: with necp1_human NECAP1, Q8NC96.
For L115R, the “effect of a mutation on the interaction” value was “with no effect”.

In another assay the parent is B4. The following applies: with zdh17_human ZDHHC17, Q8IUH5.
Sequence of zdh17_human ZDHHC17, Q8IUH5 (Q8IUH5 whole entry): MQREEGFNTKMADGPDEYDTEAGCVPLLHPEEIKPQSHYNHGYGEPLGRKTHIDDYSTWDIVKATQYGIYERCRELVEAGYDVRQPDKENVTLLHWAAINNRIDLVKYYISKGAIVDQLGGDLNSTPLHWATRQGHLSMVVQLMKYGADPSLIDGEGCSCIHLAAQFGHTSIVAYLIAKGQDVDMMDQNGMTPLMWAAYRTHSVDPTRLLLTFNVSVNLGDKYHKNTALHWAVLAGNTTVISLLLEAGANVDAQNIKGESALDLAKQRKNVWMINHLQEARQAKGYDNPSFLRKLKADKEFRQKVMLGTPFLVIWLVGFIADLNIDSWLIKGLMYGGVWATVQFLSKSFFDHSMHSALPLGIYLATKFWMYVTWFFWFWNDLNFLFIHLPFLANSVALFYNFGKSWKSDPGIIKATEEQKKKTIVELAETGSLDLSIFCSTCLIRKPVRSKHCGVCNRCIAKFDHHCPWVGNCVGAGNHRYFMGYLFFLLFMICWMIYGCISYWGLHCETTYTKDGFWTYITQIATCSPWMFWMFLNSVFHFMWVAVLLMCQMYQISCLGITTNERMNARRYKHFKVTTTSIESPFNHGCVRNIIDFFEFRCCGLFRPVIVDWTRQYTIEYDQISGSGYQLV
In the case of L115R, the “effect of a mutation on the interaction” value is on record as “increasing interaction strength”.

In another assay the parent is B4. The note with it: with ap2b1_human AP2B1, P63010.
Sequence of ap2b1_human AP2B1, P63010 (P63010 whole entry): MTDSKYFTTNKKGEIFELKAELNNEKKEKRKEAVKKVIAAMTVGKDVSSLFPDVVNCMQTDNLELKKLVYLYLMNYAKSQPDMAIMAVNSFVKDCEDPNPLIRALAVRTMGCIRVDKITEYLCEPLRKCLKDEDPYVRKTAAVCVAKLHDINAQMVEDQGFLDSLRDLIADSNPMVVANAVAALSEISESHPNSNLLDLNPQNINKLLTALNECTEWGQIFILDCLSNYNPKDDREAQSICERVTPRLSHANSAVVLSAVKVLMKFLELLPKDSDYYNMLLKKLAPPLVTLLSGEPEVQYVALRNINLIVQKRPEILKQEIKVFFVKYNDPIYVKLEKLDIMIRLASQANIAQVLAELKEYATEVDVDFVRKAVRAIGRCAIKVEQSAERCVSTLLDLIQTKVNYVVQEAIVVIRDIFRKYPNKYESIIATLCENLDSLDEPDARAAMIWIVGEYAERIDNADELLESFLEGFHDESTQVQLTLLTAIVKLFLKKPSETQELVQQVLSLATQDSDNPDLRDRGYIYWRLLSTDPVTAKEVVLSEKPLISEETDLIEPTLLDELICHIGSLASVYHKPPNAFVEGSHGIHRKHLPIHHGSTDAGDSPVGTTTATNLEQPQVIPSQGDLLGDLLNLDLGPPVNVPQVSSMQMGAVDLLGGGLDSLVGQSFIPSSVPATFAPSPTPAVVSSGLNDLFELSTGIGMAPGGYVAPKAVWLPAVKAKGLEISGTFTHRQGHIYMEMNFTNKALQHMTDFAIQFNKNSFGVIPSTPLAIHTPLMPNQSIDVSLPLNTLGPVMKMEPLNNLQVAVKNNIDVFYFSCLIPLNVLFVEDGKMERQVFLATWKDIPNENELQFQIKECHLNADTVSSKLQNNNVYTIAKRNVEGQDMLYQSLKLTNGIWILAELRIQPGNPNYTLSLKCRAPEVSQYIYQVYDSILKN
In the case of L115R, the “effect of a mutation on the interaction” value is “with no effect”.

Variants of B4 are the subject of a further assay. The note with it: with caps1_human CADPS.
With L115R, the “effect of a mutation on the interaction” value is recorded as “with no effect”.

Variants of B4 are the subject of the next assay. The following applies: with cskp_human CASK.
Take L115R: the “effect of a mutation on the interaction” value is on record as “increasing interaction strength”.

The variants in the next assay derive from B4. The following applies: with lipa1_human PPFIA1, Q13136.
For L115R, the “effect of a mutation on the interaction” value is recorded as “with no effect”.

The variants in another assay derive from B4. The note with it: with lipa4_human PPFIA4, O75335.
On to L115R, for which the “effect of a mutation on the interaction” value is recorded as “increasing interaction strength”.

The next assay covers variants of B4. The following applies: with rabx5_human RABGEF1, Q9UJ41.
Sequence of rabx5_human RABGEF1, Q9UJ41 (Q9UJ41 whole entry): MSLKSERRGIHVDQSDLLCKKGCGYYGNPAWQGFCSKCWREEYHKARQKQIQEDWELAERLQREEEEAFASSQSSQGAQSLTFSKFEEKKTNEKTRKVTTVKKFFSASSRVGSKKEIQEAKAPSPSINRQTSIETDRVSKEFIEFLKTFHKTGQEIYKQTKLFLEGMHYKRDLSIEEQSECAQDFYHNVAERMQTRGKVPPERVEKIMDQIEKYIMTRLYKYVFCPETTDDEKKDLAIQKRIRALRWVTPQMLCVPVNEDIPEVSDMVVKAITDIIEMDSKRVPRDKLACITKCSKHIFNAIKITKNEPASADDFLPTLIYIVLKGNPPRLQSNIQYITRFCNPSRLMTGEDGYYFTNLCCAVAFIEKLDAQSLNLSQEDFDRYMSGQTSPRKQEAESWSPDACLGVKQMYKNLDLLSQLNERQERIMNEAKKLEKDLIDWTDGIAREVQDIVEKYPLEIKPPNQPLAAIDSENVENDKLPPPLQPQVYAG
With L115R, the “effect of a mutation on the interaction” value was “decreasing interaction strength”.

In a further assay the parent is B4. The note with it: with sh3g3_human SH3GL3, Q99963.
Sequence of sh3g3_human SH3GL3, Q99963 (Q99963 whole entry): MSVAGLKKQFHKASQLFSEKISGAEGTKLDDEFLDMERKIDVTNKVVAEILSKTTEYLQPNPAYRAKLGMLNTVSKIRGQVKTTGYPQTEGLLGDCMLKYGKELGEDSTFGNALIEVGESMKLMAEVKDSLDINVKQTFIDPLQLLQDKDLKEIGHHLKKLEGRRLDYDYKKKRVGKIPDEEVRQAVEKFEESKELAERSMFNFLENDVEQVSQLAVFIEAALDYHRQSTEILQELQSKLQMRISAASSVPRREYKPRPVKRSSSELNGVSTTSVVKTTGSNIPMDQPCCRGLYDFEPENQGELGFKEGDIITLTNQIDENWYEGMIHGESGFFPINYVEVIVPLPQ
With L115R, the “effect of a mutation on the interaction” value is “with no effect”.

The variants in the next assay derive from B4. The note with it: with snp29_human SNAP29, O95721.
Sequence of snp29_human SNAP29, O95721 (O95721 whole entry): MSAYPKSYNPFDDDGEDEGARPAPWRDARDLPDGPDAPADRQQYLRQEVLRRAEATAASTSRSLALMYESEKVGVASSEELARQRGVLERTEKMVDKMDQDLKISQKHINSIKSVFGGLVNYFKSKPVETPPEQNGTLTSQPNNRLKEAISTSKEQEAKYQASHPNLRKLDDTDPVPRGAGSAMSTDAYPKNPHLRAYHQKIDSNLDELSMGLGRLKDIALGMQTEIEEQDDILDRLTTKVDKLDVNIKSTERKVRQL
L115R: the “effect of a mutation on the interaction” value is reported as “with no effect”.

Another assay covers variants of B4. The note with it: with syua_human SNCA.
For the variant L115R, the “effect of a mutation on the interaction” value is listed as “with no effect”.

The variants in another assay derive from B4. The note with it: with zdh17_human ZDHHC17, Q8IUH5. The source holds these as a separate data set.
On to L115R, for which the “effect of a mutation on the interaction” value is “decreasing interaction strength”.

Variants of B4 are the subject of a further assay. The note with it: with grm8_human GRM8, O00222.
Sequence of grm8_human GRM8, O00222 (O00222 whole entry): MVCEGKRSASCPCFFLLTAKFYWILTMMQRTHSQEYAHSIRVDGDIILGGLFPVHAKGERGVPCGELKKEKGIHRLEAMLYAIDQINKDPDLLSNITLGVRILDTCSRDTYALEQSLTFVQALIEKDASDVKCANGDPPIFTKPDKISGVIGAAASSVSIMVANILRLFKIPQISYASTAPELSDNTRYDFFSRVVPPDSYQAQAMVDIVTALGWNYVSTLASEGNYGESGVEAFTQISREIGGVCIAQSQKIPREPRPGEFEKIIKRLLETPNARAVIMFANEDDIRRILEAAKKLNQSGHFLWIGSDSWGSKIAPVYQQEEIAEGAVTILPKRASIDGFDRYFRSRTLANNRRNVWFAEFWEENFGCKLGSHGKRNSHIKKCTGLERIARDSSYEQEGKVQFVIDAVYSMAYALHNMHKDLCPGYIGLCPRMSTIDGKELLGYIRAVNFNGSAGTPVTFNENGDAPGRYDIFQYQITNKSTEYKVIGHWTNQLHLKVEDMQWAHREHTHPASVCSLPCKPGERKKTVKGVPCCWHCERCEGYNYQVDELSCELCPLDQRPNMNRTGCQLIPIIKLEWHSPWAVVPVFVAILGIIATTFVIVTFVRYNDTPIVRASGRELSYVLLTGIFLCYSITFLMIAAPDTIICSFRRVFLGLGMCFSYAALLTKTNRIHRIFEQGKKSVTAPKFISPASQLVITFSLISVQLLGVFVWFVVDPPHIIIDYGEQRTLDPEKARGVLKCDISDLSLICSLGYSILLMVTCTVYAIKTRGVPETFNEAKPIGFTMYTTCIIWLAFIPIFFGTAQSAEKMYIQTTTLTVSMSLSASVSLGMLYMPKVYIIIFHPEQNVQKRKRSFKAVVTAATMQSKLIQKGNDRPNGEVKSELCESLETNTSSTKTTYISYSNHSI
For L115R, the “effect of a mutation on the interaction” value is reported as “decreasing interaction strength”.

In another assay the parent is B4. The following applies: with nrx3b_human NRXN3, Q9HDB5.
As for L115R, the “effect of a mutation on the interaction” value is on record as “decreasing interaction strength”.

The next assay covers variants of B4. The following applies: with syph_human SYP.
In the case of L115R, the “effect of a mutation on the interaction” value is reported as “decreasing interaction strength”.

In a further assay the parent is B4. The note with it: with syt1_human SYT1, P21579.
Consider L115R, for which the “effect of a mutation on the interaction” value is given as “decreasing interaction strength”.

Variants of B4 are the subject of another assay. The note with it: with vamp2_human VAMP2, P63027.
Sequence of vamp2_human VAMP2, P63027 (P63027 whole entry): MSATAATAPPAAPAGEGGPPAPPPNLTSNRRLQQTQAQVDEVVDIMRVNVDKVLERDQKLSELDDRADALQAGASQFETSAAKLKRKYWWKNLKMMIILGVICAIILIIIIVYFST
L115R: the “effect of a mutation on the interaction” value is given as “decreasing interaction strength”.

Variants of B4 are the subject of the next assay. The note with it: with vamp3_human VAMP3, Q15836.
Sequence of vamp3_human VAMP3, Q15836 (Q15836 whole entry): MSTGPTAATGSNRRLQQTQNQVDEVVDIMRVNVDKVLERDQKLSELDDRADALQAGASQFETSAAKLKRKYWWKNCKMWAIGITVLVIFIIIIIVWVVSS
As to L115R, the “effect of a mutation on the interaction” value is reported as “decreasing interaction strength”.

The variants in the next assay derive from B4. The following applies: with ap2a1_human AP2A1, O95782.
Sequence of ap2a1_human AP2A1, O95782 (O95782 whole entry): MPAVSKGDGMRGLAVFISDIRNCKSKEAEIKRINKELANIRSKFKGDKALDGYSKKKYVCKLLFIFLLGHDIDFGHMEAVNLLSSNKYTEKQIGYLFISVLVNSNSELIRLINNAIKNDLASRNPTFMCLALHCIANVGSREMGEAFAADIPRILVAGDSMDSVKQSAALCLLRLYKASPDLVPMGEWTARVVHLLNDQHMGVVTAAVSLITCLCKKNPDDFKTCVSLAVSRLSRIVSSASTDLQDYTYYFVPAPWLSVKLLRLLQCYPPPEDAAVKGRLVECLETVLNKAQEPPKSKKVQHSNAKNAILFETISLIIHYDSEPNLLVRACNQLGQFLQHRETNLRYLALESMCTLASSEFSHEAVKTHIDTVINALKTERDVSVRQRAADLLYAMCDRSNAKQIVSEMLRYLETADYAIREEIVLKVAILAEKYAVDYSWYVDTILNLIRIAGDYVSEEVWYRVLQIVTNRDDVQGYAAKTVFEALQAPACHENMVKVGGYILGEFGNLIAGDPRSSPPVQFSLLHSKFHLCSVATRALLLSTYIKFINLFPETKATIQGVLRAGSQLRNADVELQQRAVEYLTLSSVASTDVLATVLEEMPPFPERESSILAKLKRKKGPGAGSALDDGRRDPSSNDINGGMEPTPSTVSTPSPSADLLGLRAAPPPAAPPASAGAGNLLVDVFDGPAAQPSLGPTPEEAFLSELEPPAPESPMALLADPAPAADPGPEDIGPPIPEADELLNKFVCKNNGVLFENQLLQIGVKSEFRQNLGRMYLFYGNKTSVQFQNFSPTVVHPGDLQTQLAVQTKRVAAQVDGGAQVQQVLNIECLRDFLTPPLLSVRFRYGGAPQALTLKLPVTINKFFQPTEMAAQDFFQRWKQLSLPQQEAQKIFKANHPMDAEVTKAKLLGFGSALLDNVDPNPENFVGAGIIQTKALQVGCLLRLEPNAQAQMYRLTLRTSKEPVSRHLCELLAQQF
L115R: the “effect of a mutation on the interaction” value is listed as “with no effect”.

Variants of B4 are the subject of the next assay. The note with it: with ap2s1_human AP2S1, P53680.
Sequence of ap2s1_human AP2S1, P53680 (P53680 whole entry): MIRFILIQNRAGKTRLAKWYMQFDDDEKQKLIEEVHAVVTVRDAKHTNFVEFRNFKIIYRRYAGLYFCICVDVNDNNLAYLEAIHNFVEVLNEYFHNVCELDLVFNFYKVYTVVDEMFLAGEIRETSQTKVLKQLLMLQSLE
Turning to L115R, the “effect of a mutation on the interaction” value is “with no effect”.
